From US20100234450, “Molecular targeting agents” (published 2010) come the findings set out here.

Series [1] deals with T1, PSMA (prostate-specific membrane antigen) (Homo sapiens, UniProt Q04609 Q04609:1-750). Put plainly: cell binding to PSMA-positive 22Rv1(1.7) cells. Particulars: tags: none, endogenous on 22Rv1(1.7) and LNCaP prostate cancer cells, chain copies: 2.
Series [2] addresses T1, PSMA (prostate-specific membrane …). Put plainly: cell binding to PSMA-positive 22Rv1(1.7) cells; Bmax much lower on PSMA-negative 22Rv1(wmr) cells. Particulars: tags: none; endogenous on 22Rv1(1.7) and LNCaP prostate cancer cells; chain copies: 2; label: 111In.

T1 sequence (Q04609 whole entry, one chain of several): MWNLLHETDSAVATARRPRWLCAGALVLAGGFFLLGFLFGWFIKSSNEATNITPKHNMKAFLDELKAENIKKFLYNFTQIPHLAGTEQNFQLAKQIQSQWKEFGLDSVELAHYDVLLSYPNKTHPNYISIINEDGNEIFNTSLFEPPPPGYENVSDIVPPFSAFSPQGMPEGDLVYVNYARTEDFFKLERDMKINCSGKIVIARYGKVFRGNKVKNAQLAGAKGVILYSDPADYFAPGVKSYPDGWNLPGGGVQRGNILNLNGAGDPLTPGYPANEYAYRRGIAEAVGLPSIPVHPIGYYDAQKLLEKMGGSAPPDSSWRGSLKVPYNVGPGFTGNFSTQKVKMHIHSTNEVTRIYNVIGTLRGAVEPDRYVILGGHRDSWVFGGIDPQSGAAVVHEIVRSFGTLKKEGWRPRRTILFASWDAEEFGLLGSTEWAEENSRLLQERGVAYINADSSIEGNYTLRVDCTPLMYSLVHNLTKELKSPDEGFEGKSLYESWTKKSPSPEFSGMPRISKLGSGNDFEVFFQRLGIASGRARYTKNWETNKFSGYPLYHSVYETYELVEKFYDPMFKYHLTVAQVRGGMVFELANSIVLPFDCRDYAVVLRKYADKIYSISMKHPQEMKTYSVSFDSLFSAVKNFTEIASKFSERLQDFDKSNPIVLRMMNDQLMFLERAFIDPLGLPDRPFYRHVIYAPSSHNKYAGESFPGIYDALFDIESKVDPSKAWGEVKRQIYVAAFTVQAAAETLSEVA

B1: A10-3.2 (32P) (ssRNA)
RNA: GGGAGGACGAUGCGGAUCAGCCAUGUUUACGUCACUCCU
B1: binding in series [1] (label: 5'-32P) was characterised by a dissociation constant (Kd) of 106 nM.

B2: 111In-DOTA-A10-3.2 (ssRNA)
RNA: B1 RNA
modifications: 5'-DOTA chelator via linker
For B2, in series [2], the Kd is 119 nM.

B3: 64Cu-NOTA-A10-3.2 (ssRNA)
RNA: B1 RNA
modifications: 5'-NOTA chelator via linker
For B3, binding in series [1] (label: 64Cu) was characterised by a dissociation constant (Kd) of 131 nM.
